# IntAct's records for PubMed 21718540
# B1: TGF-beta receptor type-1 (Mus musculus), Q64729 (parent)
# chain: MEAAAAAPRRPQLLIVLVAAATLLPGAKALQCFCHLCTKDNFTCETDGLCFVSVTETTDKVIHNSMCIAEIDLIPRDRPFVCAPSSKTGAVTTTYCCNQDHCNKIELPTTGPFSEKQSAGLGPVELAAVIAGPVCFVCIALMLMVYICHNRTVIHHRVPNEEDPSLDRPFISEGTTLKDLIYDMTTSGSGSGLPLLVQRTIARTIVLQESIGKGRFGEVWRGKWRGEEVAVKIFSSREERSWFREAEIYQTVMLRHENILGFIAADNKDNGTWTQLWLVSDYHEHGSLFDYLNRYTVTVEGMIKLALSTASGLAHLHMEIVGTQGKPAIAHRDLKSKNILVKKNGTCCIADLGLAVRHDSATDTIDIAPNHRVGTKRYMAPEVLDDSINMKHFESFKRADIYAMGLVFWEIARRCSIGGIHEDYQLPYYDLVPSDPSVEEMRKVVCEQKLRPNIPNRWQSCEALRVMAKIMRECWYANGAARLTALRIKKTLSQLSQQEGIKM
# partner: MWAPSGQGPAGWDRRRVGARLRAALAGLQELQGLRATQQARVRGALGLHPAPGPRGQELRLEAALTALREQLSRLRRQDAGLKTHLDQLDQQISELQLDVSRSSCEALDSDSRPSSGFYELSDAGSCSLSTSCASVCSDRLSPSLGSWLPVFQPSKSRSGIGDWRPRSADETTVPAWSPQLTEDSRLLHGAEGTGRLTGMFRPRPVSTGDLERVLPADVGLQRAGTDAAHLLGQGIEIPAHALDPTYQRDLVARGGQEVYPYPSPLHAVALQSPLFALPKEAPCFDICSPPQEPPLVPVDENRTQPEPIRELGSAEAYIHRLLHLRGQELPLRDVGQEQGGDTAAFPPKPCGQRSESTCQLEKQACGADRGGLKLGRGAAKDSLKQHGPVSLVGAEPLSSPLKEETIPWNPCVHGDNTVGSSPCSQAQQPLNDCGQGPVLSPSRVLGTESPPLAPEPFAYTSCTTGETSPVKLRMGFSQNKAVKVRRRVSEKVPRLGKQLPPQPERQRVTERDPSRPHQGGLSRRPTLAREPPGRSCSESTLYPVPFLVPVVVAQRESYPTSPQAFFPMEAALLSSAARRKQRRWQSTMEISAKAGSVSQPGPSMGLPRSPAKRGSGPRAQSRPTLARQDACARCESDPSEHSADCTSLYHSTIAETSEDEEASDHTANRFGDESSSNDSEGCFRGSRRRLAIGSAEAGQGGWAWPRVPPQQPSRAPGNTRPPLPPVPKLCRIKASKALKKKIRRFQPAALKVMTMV
# Variants of: B1
# Settings: with dact2_mouse Dact2, Q7TN08
row,Variant,effect of a mutation on the interaction
1,MEAAAAAPRRPQLLIVLVAAATLLPGAKALQCFCHLCTKDNFTCETDGLCFVSVTETTDKVIHNSMCIAEIDLIPRDRPFVCAPSSKTGAVTTTYCCNQDHCNKIELPTTGPFSEKQSAGLGPVELAAVIAGPVCFVCIALMLMVYICHNRTVIHHRVPNEEDPSLDRPFISEGTTLKDLIYDMTTSGSGSGLPLLVQRTIARDIVLQESIGKGRFGEVWRGKWRGEEVAVKIFSSREERSWFREAEIYQTVMLRHENILGFIAADNKDNGTWTQLWLVSDYHEHGSLFDYLNRYTVTVEGMIKLALSTASGLAHLHMEIVGTQGKPAIAHRDLKSKNILVKKNGTCCIADLGLAVRHDSATDTIDIAPNHRVGTKRYMAPEVLDDSINMKHFESFKRADIYAMGLVFWEIARRCSIGGIHEDYQLPYYDLVPSDPSVEEMRKVVCEQKLRPNIPNRWQSCEALRVMAKIMRECWYANGAARLTALRIKKTLSQLSQQEGIKM [T204D],decreasing interaction
